Test results published in PMC4871238.

Biological target: native Dictyostelium discoideum pre-60S ribosomal subunit (Dictyostelium discoideum) (UniProt P34113)
Assay: cryo-EM structure

native Dictyostelium discoideum pre-60S ribosomal subunit (Dictyostelium discoideum), sequence (P34113 whole entry, looked up, tested part not stated): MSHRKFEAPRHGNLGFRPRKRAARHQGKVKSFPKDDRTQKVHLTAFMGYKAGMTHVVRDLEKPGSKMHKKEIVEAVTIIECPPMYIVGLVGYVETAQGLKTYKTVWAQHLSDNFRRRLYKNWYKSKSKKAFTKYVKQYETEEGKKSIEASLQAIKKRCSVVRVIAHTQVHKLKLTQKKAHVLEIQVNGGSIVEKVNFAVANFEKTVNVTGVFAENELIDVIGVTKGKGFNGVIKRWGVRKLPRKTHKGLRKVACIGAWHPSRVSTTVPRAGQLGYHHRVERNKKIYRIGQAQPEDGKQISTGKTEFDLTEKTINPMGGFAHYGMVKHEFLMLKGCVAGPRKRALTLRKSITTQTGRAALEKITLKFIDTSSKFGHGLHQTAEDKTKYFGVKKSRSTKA
Dictyostelium discoideum eIF6 (eukaryotic initiation factor 6), endogenous, sequence (Q551M2 whole entry): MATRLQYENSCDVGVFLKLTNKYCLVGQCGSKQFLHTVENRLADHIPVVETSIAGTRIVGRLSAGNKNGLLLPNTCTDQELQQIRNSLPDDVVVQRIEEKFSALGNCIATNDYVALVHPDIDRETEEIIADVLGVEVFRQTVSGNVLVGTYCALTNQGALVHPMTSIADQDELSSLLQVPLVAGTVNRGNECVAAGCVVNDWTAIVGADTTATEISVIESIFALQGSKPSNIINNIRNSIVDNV

percent of native pre-60S subunits carrying eIF6: 85%
Substance: Dictyostelium discoideum eIF6 (eukaryotic initiation factor 6), endogenous (from UniProt Q551M2 1-244) (natural protein)
